Reference: US20260250421A1 (BIOCYTOGEN PHARMACEUTICALS BEIJING, published 2026)
Changes are numbered by the printed parent chain.

T1: human PTK7 on human cancer cell lines (human, UniProt Q13308 31-1070)
T1 construct: Endogenous PTK7 of human tumour cell lines; also called PTK7 on A-431, NCI-H520, NCI-N87, SK-OV-3, BT-20, HCC1954, NCI-H226, NCI-H358, HCT116, PC-3, NCI-H292, NCI-H1975 cells
T1 sequence: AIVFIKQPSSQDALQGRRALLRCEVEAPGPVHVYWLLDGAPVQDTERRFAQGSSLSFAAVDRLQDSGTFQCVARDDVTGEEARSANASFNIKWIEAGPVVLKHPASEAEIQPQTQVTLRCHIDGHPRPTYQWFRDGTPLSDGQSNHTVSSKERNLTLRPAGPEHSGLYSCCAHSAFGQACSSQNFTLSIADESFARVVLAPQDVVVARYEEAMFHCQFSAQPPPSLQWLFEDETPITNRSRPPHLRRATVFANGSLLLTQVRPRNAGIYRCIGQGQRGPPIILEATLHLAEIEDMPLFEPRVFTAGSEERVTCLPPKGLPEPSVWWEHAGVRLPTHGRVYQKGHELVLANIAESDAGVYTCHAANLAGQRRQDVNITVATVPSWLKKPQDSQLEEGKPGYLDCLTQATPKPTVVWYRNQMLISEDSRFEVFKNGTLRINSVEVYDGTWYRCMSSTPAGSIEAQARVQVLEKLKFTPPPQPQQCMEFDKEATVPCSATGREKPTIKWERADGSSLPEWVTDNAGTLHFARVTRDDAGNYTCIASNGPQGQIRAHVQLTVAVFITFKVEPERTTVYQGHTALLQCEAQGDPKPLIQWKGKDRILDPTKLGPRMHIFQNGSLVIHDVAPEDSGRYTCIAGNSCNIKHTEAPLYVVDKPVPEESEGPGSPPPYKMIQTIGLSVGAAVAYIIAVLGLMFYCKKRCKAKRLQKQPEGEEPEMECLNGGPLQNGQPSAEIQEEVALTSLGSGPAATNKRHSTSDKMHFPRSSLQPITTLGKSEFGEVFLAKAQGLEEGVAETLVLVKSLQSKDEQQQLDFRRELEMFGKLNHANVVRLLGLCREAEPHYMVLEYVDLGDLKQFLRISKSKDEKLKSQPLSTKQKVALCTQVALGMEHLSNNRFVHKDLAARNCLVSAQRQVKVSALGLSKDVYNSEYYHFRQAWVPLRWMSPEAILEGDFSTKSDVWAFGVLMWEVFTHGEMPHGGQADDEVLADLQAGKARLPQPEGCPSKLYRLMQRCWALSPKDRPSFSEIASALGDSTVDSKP

T2: dog PTK7 on dog cancer cell lines (dog, UniProt A0A8I3N574 31-1070)
T2 construct: whole, on cells; Endogenous protein on dog tumour cell lines; also called PTK7 on CMT-U27 and D-17 cells; dog cancer cells
T2 sequence: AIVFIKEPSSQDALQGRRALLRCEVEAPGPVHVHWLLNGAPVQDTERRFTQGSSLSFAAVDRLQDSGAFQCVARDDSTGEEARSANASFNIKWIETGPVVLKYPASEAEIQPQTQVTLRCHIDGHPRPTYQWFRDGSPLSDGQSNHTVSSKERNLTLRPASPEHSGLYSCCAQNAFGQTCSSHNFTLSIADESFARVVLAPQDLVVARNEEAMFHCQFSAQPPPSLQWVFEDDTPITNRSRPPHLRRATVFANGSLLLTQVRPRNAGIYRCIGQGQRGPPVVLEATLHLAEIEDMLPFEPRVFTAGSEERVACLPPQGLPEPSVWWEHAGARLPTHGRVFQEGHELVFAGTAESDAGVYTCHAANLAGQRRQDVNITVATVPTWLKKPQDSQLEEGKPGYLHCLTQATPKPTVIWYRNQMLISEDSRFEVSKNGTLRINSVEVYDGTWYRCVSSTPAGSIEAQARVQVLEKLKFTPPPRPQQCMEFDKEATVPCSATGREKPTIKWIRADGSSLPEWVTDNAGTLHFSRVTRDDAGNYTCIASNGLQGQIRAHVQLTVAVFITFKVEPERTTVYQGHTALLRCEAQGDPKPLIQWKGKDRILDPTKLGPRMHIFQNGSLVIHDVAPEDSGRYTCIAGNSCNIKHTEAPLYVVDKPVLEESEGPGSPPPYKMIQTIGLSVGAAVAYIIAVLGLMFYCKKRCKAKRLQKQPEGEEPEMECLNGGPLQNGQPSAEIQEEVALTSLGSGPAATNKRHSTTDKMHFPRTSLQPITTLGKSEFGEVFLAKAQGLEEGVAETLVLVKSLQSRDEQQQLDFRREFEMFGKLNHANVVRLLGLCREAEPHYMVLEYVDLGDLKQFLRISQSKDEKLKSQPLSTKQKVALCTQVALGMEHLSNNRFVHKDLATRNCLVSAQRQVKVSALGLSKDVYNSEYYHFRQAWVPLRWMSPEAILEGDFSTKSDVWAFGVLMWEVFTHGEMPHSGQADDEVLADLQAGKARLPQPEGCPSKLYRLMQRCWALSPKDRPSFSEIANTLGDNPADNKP

B1: 3C4 (antibody, V domains shown)
VH: QVQLEQSRAEVKKPGESLRISCKGSGYSFTSYWISWVRQMPGKGLEWMGRIDPSDSYTNYNPSFQGHVTISADKSISTAYLQWSSLKASDTAMYYCARRDGSYFDFDYWGQGTLVTVSS
VL: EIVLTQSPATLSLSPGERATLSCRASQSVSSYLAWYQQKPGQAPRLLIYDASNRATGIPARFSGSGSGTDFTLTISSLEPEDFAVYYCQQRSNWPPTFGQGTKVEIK
notes: also called anti-PTK7 antibody 3C4
B2: 3E6 (antibody, V domains shown)
VH: B1 VH with E5V, Q6E, R8G, K23R, N59K, N61S, S102D
VL: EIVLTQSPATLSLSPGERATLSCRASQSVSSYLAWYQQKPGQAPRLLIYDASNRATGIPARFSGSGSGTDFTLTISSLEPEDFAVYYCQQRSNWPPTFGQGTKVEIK
notes: also called anti-PTK7 antibody 3E6
B3: 1A7 (antibody, human IgG1, V domains shown)
VH: QVQLVESGGGVVQPGRSLRLSCAASGFTFSNYGMHWVRQAPGKGLEWVAVIYYDGSNKFYADSVKGRFTISRDNSKNTLYLQMSSLRAEDTAVYYCARDVAPPGSRAEYFHHWGQGTLVTVSS
VL: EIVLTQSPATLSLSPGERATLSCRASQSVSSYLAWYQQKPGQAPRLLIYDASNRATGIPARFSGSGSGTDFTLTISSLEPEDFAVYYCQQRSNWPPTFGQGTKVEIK
notes: also called anti-PTK7 antibody 1A7
B4: 2F5 (antibody, V domains shown)
VH: B3 VH with A23V, V50I, F59Y, S84N, P102A, P103A, F110L
VL: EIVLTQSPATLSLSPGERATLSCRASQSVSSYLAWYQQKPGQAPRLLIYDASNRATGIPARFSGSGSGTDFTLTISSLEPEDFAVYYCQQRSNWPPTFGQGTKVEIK
notes: also called anti-PTK7 antibody 2F5
B5: 2A5 (antibody, V domains shown)
VH: B3 VH with E6Q, Y52W, S56R, F59Y, S84N, P103A, H111Q, H112N
VL: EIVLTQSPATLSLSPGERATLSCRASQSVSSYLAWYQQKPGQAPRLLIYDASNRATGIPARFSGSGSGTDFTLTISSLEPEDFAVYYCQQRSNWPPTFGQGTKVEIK
notes: also called anti-PTK7 antibody 2A5
B6: 2D11 (antibody, V domains shown)
VH: B3 VH with N31S, Y52F, F59Y, S84N, A92S, P102A, H111Q, H112N
VL: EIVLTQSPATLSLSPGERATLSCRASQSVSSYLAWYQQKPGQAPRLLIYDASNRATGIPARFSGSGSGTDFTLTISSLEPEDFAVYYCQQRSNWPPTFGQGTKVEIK
notes: also called anti-PTK7 antibody 2D11
B7: 1A11 (antibody, V domains shown)
VH: QVQLVQSGPGLVKPSETLSLTCTVSGGSINSYYWNWIRQPPGKGLEWIGYIYYSGSTNYNPSLKSRVTISVDTSKNQFSLKLSSVTAADTAVYYCARDPHDYIRGHFDLWGRGTLFTVSS
VL: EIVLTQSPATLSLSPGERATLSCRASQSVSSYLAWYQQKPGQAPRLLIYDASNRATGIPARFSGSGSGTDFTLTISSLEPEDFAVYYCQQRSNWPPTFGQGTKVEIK
notes: also called anti-PTK7 antibody 1A11
B8: 1F2 (antibody, V domains shown)
VH: QVQLVQSGGGLVQPGGSLRLSCAASGFTFSRYEMNWVRQAPGKGLEWVSYINSIGSAINYADSVKGRFTISRDNAKNSLYLQMRSLRAEDTAVYYCVREDNWNPGYWGQGTLVTVSS
VL: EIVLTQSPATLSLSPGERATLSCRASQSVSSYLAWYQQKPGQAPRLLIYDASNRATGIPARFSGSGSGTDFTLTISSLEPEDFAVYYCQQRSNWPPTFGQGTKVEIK
notes: also called anti-PTK7 antibody 1F2

The binders below were run against T1, human PTK7 on human cancer cell lines (assay: flow cytometry, NCI-H292 cells, Ab 5 ug/mL).
Experimental: (§1) The binding activity of anti-PTK7 antibodies to cancer cell lines was verified by flow cytometry. […] Purified anti-PTK7 antibody with a concentration of 5 μg/mL was added to each well and was incubated at 4° C. for 30 minutes. […] The cells were collected, and the mean fluorescence intensity (MFI) was determined. Human IgG1 was used as ISO control.

| MFI | Binder |
| --- | --- |
| 92400 | B1 |
| 141000 | B2 |
| 43500 | B3 |
| 44500 | B4 |
| 92000 | B5 |
| 134000 | B6 |
| 125000 | B7 |
| 69300 | B8 |

These binders were tested against T1, human PTK7 on human cancer cell lines (assay: flow cytometry, PC-3 cells, Ab 5 ug/mL).
Experimental: as §1

| MFI | Binder |
| --- | --- |
| 66700 | B1 |
| 94600 | B2 |
| 32500 | B3 |
| 32400 | B4 |
| 60700 | B5 |
| 73000 | B6 |
| 67200 | B7 |
| 34900 | B8 |

These binders were tested against T2, dog PTK7 on dog cancer cell lines (assay: flow cytometry, CMT-U27 dog cells, Ab 5 ug/mL).
Experimental: as §1

| MFI | Binder |
| --- | --- |
| 37400 | B1 |
| 94500 | B2 |
| 56700 | B3 |
| 81300 | B4 |
| 76400 | B5 |
| 72200 | B6 |
| 75600 | B7 |
| 45800 | B8 |

What follows are binders tested against T1, human PTK7 on human cancer cell lines (assay: flow cytometry, HCC1954 cells, Ab 5 ug/mL).
Experimental: as §1

| MFI | Binder |
| --- | --- |
| 187000 | B1 |
| 207000 | B2 |
| 118000 | B3 |
| 121000 | B4 |
| 179000 | B5 |
| 211000 | B6 |
| 172000 | B7 |
| 99100 | B8 |

What follows are binders tested against T2, dog PTK7 on dog cancer cell lines (assay: flow cytometry, D-17 dog cells, Ab 5 ug/mL).
Experimental: as §1

| MFI | Binder |
| --- | --- |
| 34600 | B1 |
| 86300 | B2 |
| 120000 | B3 |
| 131000 | B4 |
| 95900 | B5 |
| 106000 | B6 |
| 90600 | B7 |
| 64100 | B8 |
